We go through 3 molecules from US20210284734A1 (SYMPHOGEN A S, published 2021).

Numbering of substitutions follows the chain as printed.

What all share (assay): SPR, Fab on captured PD-1-Fc
(Surface plasmon resonance follows binding to a sensor surface in real time, without labels.)

The target in test [1] is T1, human PD-1 ECD-Fc chimeric construct 21 (human, UniProt Q15116 21-170).
T1 construct: printed run together as I134VK135V; not shown: human IgG1 Fc, residues P101-K330
T1 chain: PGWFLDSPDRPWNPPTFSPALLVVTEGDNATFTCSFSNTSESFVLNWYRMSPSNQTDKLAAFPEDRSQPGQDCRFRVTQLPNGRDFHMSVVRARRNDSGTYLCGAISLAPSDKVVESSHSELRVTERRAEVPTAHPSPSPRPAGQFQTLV

The target of test [2] is T2, human PD-1 ECD-Fc chimeric construct 10 (human, UniProt Q15116 21-170).
T2 construct: printed run together as P83IE84R; not shown: human IgG1 Fc, residues P101-K330
T2 chain: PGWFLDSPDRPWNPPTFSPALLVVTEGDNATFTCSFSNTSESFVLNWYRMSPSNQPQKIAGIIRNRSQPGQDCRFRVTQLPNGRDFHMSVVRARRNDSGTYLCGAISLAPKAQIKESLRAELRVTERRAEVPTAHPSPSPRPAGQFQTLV

For test [3], the target named is T3, human PD-1 ECD-Fc chimeric construct 6 (human, UniProt Q15116 21-170).
T3 construct: not shown: human IgG1 Fc, residues P101-K330
T3 chain: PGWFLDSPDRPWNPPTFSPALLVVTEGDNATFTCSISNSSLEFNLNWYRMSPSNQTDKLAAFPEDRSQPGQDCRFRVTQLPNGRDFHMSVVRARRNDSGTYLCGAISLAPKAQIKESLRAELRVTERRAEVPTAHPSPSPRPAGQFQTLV

Test [4] has as its target T4, human PD-1 ECD-Fc chimeric construct 17 (human, UniProt Q15116 21-170).
T4 construct: not shown: human IgG1 Fc, residues P101-K330
T4 chain: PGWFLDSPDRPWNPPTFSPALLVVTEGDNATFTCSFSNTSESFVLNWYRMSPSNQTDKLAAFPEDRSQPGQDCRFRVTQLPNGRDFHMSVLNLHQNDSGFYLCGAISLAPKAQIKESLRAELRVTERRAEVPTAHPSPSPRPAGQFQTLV

Test [5] concerns the target T5, human PD-1 ECD-Fc chimeric construct 23 (human, UniProt Q15116 21-170).
T5 construct: not shown: human IgG1 Fc, residues P101-K330

Test [6] addresses T6, human PD-1 ECD-Fc chimeric construct 3 (human, UniProt Q15116 21-170).
T6 construct: not shown: human IgG1 Fc, residues P101-K330
T6 chain: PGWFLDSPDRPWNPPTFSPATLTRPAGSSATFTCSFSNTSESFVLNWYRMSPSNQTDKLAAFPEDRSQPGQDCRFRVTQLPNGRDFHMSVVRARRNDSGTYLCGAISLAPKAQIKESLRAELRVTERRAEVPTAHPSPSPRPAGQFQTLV

Test [7] has as its target T7, human PD-1 ECD-Fc chimeric construct 4 (human, UniProt Q15116 21-170).
T7 construct: not shown: human IgG1 Fc, residues P101-K330
T7 chain: T6 chain with T21L, T23V, R24V, P25T, T33I, S35N

The target in test [8] is T8, human PD-1 ECD-Fc chimeric construct 5 (human, UniProt Q15116 21-170).
T8 construct: 'S56I' as printed; not shown: C-terminal human IgG Fc (printed as residues P101-K330)
T8 chain: T3 chain with T33I, S35N, L41E, E42S, N44V

The target of test [9] is T9, human PD-1 ECD-Fc chimeric construct 15 (human, UniProt Q15116 21-170).
T9 construct: not shown: human IgG1 Fc, residues P101-K330
T9 chain: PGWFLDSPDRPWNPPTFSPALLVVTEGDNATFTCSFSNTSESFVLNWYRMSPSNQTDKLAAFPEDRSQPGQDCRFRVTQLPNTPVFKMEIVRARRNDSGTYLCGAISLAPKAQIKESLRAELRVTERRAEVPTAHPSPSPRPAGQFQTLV

Test [10] addresses T10, human PD-1 ECD-Fc chimeric construct 22 (human, UniProt Q15116 21-170).
T10 construct: not shown: human IgG1 Fc, residues P101-K330
T10 chain: T1 chain with S111K, D112A, K113Q, V114I, V115K, E121Q, R123V

The target of test [11] is T11, human PD-1 ECD-Fc chimeric construct 16 (human, UniProt Q15116 21-170).
T11 construct: not shown: human IgG1 Fc, residues P101-K330
T11 chain: T4 chain with H87K, S89E, V90I, F100T

Test [12] has as its target T12, human PD-1 ECD-Fc chimeric construct 12 (human, UniProt Q15116 21-170).
T12 construct: not shown: human IgG1 Fc, residues P101-K330
T12 chain: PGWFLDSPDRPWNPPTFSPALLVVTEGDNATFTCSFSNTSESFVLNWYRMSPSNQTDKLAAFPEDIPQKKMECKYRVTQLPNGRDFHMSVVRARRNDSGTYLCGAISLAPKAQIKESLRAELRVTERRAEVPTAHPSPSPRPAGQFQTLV

Test [13] has as its target T13, human PD-1 ECD-Fc chimeric construct 11 (human, UniProt Q15116 21-170).
T13 construct: printed run together as P83IE84R; not shown: human IgG1 Fc, residues P101-K330
T13 chain: T2 chain with P56T, Q57D, I59L, R66I, S67P, P69K, G70K

B1: 12819.17149 Fab (Fab, V domains shown)
VH: EVQLLESGGGLVQPGGSLRLSCAASGFTFTRYDMVWVRQAPGKGLEWVAGIGDSNKMTRYAPAVKGRATISRDNSKNTLYLQMNSLRAEDTAVYYCAKGSCIACWDEAGRIDAWGQGTLVTVSS
VL: SYELTQDPAVSVALGQTVRITCSGGGSYDGSSYYGWYQQKPGQAPVTVIYNNNNRPSDIPDRFSGSSSGNTASLTITGAQAEDEADYYCGSYDRPETNSDYVGMFGSGTKVTVL
notes: monomeric Fab fragment
B1: the binding result in test [1] was “no binding (tested: 1 nM to 50 nM)”. The “KD mutant/KD wild-type” value in [2] stood at 33.7 ratio; in test [3] it was 7.1 ratio; in [4], 0.2 ratio; in [5], 1.7 ratio; in [6], 1.3 ratio; in [7] it was 0.3 ratio. Moreover, the “KD mutant/KD wild-type” value amounted to 1.2 ratio in test [8]; 1.3 ratio in [9]; 1.9 ratio in test [10]; 3.6 ratio in test [11]; 2.2 ratio in test [12]; 17.7 ratio in test [13].

B2: 12865.17150 Fab (Fab, V domains shown)
VH: EVQLLESGGGLVQPGGSLRLSCAASGFDFSDHGMQWVRQAPGKGLEYVGVIDTTGRYTYYAPAVKGRATISRDNSKNTLYLQMNSLRAEDTAVYYCAKTTCVGGYLCNTVGSIDAWGQGTLVTVSS
VL: SYELTQDPAVSVALGQTVRITCSGGGSSSYYGWYQQKPGQAPVTVIYDDTNRPSGIPDRFSGSSSGNTASLTITGAQAEDEADYYCGGYEGSSHAGIFGSGTKVTVL
notes: monomeric Fab fragment
As to B2, the binding result in test [1] is reported as “no binding (tested: 1 nM to 50 nM)”. Besides, the “KD mutant/KD wild-type” value in test [2] was 13.8 ratio; in test [3], 0.2 ratio; in test [4] it was 0.5 ratio; in test [5], 1 ratio; in test [6], 0.6 ratio; in test [7] it was 0.6 ratio. Moreover, the “KD mutant/KD wild-type” value in test [8] is 0.9 ratio; in test [9], 0.8 ratio; in test [10], 1 ratio; in [11], 0.4 ratio; in [12] it was 0.6 ratio; in [13] it was 5.4 ratio.

B3: 13112.15380 Fab (Fab, V domains shown)
VH: EVQLLESGGGLVQPGGSLRLSCAASGFTFSSYNMFWVRQAPGKGLEFVAEISGSNTGSRTWYAPAVKGRATISRDNSKNTLYLQMNSLRAEDTAVYYCAKSIYGGYCAGGYSCGVGLIDAWGQGTLVTVSS
VL: SYELTQDPAVSVALGQTVRITCSGGSSDYYGWFQQKPGQAPVTVIYYNNKRPSDIPDRFSGSSSGNTASLTITGAQAEDEADYYCGNADSSVGVFGSGTKVTVL
Regarding B3, the “KD mutant/KD wild-type” value in test [1] was 0.5 ratio; in test [2], 1 ratio; in test [3] it was 0.8 ratio; in [4], 0.7 ratio; in test [5], 1.5 ratio; in [6], 0.7 ratio. The “KD mutant/KD wild-type” value was determined as 0.6 ratio in test [7]; 2.5 ratio in [8]; 0.9 ratio in test [9]; 1 ratio in test [10]; 0.7 ratio in test [11]; 0.6 ratio in test [12]. Moreover, the “KD mutant/KD wild-type” value in [13] was 0.8 ratio.
